Laboratory results from publication PMC3428624.

Biological target: histone H3 K115C (UniProt P84233)
Experiment: cross-linking

efficiency of crosslinking at H3 K115C (H3-H3’): 80%
Substance: histone H3 K115C (from UniProt P84233 2-136) (natural protein)
